Source: the supplement of paper PMC7125110
± gives the standard error. Variants at the floor of the assay were thinned out.

B1: glmS ribozyme (parent)
chain: AUAAAAGCGCCAGAACUACAGAAAUGUAGUUGACGAGGAGGAGGUUUAUCGAAUUUUCGGCGGAUGCCUCCAAA

Tests used:
Details in all cases: with glucosamine-6-phosphate
[1] = variants of: B1; experiment: self-cleavage kobs at 40 uM GlcN6P; higher = faster cleavage; RNA array
Method in brief: (§1)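 Barcoded glmS ribozyme variants on sequenced MiSeq chips were transcribed in situ by E. coli RNA polymerase and tracked through a hybridised Cy3 probe at 37 °C. Glucosamine-6-phosphate (40 μM to 10 mM) in HEPES/KCl/Mg(OAc)2 buffer was flowed in, and tiles were imaged over ~14 h. Signals were normalised to baseline and to non-cleaving reference variants; per-tile medians were fit to one- or two-exponential decays to give kobs. kcat and KM came from weighted Michaelis–Menten fits across concentrations.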

[2] = variants of: B1; experiment: self-cleavage kobs at 10000 uM GlcN6P; higher = faster cleavage; RNA array
Method in brief: as §1

[3] = variants of: B1; experiment: self-cleavage kobs at 640 uM GlcN6P; higher = faster cleavage; RNA array
Method in brief: as §1

[4] = variants of: B1; experiment: self-cleavage kobs at 2500 uM GlcN6P; higher = faster cleavage; RNA array
Method in brief: as §1

[5] = variants of: B1; experiment: self-cleavage kobs at 160 uM GlcN6P; higher = faster cleavage; RNA array
Method in brief: as §1

AUAAAAGCGCUAGAACUACAGAAAUGUAGUCGACGAGGAGGAGGUUCAUCGUAUUUUCGGCGGAUGCCUCCAAA [C11U U31C U47C A52U]
self-cleavage kobs at 40 uM GlcN6P [1]: < 1e-05 s⁻¹
self-cleavage kobs at 10000 uM GlcN6P [2]: < 1e-05 s⁻¹

AUAAAAGCGCCCGAAUUACAGAAAUGUAGUUGACGAGGAGUAGGUUUAUCGAAUUUUCGGCGGAUGCCUCCAAA [A12C C16U G41U]
self-cleavage kobs at 40 uM GlcN6P [1]: 6.93e-05 ± 2e-05 s⁻¹
self-cleavage kobs at 640 uM GlcN6P [3]: 0.000163 ± 3.3e-05 s⁻¹
self-cleavage kobs at 2500 uM GlcN6P [4]: 0.000447 ± 9.6e-05 s⁻¹
self-cleavage kobs at 10000 uM GlcN6P [2]: 0.000649 ± 0.00015 s⁻¹

AUAAAAGCGCCCGAACUACAGAAAUGUAGGUUCCGAGGAGGAGGUUUAUCGAAUUUUUGGCGGAUGCCUCCAAA [A12C U30G G32U A33C C58U]
self-cleavage kobs at 40 uM GlcN6P [1]: < 1e-05 s⁻¹
self-cleavage kobs at 10000 uM GlcN6P [2]: < 1e-05 s⁻¹

AUAAAAGCGCUAGAACUACAGAAAUGUAGUUGACAAGGAGGAGGUUUAUCGAAUUUUCGGCGGAUGCCUCCAAA [C11U G35A]
self-cleavage kobs at 40 uM GlcN6P [1]: < 1e-05 s⁻¹
self-cleavage kobs at 160 uM GlcN6P [5]: < 1e-05 s⁻¹
self-cleavage kobs at 640 uM GlcN6P [3]: < 1e-05 s⁻¹
self-cleavage kobs at 2500 uM GlcN6P [4]: < 1e-05 s⁻¹
self-cleavage kobs at 10000 uM GlcN6P [2]: < 1e-05 s⁻¹

AUAAAAGCGCUAGAACUACAGAAAUGUAGUUGACCAGGAGGAGGUUUAUCGAAUUUUCGGCGGAUGCCUCCAAA [C11U G35C]
self-cleavage kobs at 40 uM GlcN6P [1]: < 1e-05 s⁻¹

AUAAAAGCGCUAGAACUACAGAAAUGUAUUUGACGAGGAGGAGGUUUAUUGAAUUUUCGGCGGAUGCCUCGAAA [C11U G29U C50U C71G]
self-cleavage kobs at 40 uM GlcN6P [1]: 4.57e-05 ± 2.1e-05 s⁻¹

AUAAAAGCGCCCGAACUACAGAAAUGUAGUUGACGAGGAAGAGGUUUAUCGAAUUUUUGGCGGAUGCCUCCAAA [A12C G40A C58U]
self-cleavage kobs at 40 uM GlcN6P [1]: < 1e-05 s⁻¹
self-cleavage kobs at 160 uM GlcN6P [5]: < 1e-05 s⁻¹

AUAAAAGCGCUAGAACUACAGAAAUGUAGUUGACGAGGAGCAGGUUUAUCGAAUUUUCGGCGGAUGCCUCCAAA [C11U G41C]
self-cleavage kobs at 40 uM GlcN6P [1]: < 1e-05 s⁻¹
self-cleavage kobs at 160 uM GlcN6P [5]: < 1e-05 s⁻¹

AUAAAAGCGCUAGAACUACAGAAAUGUACUUGAAGAUGAGGAGGUUUAUCGAAUUUUCGGCGGAUGCCUCCAAA [C11U G29C C34A G37U]
self-cleavage kobs at 40 uM GlcN6P [1]: < 1e-05 s⁻¹
self-cleavage kobs at 640 uM GlcN6P [3]: < 1e-05 s⁻¹

AUAAAAGCGCCCAAACUACAGAAAUGUAGUUGACGAGGAGGAGGUUUAUCGAAUUUUCGGCGGACGCUUCCAAA [A12C G13A U65C C68U]
self-cleavage kobs at 40 uM GlcN6P [1]: < 1e-05 s⁻¹

AUAAAAGCGCUAAAACUACAGAAAUGUAGUUGACGAGGAGGAGGUUUAUCGAAUUUUCGGCGGAUGCCUCCAAA [C11U G13A]
self-cleavage kobs at 40 uM GlcN6P [1]: < 1e-05 s⁻¹
self-cleavage kobs at 2500 uM GlcN6P [4]: 3.03e-05 ± 1.4e-05 s⁻¹
self-cleavage kobs at 10000 uM GlcN6P [2]: 6.97e-05 ± 1.7e-05 s⁻¹

AUAAAAGCGCCCGAACUACAGAAAUGUAGUUGACGAGGAGGAGGUUUAUCGAAUUUUCGGCGAAUGCCUCCAAA [A12C G63A]
self-cleavage kobs at 40 uM GlcN6P [1]: < 1e-05 s⁻¹
self-cleavage kobs at 160 uM GlcN6P [5]: < 1e-05 s⁻¹
self-cleavage kobs at 640 uM GlcN6P [3]: < 1e-05 s⁻¹
self-cleavage kobs at 2500 uM GlcN6P [4]: < 1e-05 s⁻¹
self-cleavage kobs at 10000 uM GlcN6P [2]: < 1e-05 s⁻¹

AUAAAAGCGCUAGAACUACAGAAAUGUAGUUCACGAGGAGGAGGUUUAUCGAAUUUUCGGCGGAUGCCUCCAAA [C11U G32C]
self-cleavage kobs at 40 uM GlcN6P [1]: < 1e-05 s⁻¹
self-cleavage kobs at 160 uM GlcN6P [5]: < 1e-05 s⁻¹
self-cleavage kobs at 640 uM GlcN6P [3]: < 1e-05 s⁻¹
self-cleavage kobs at 10000 uM GlcN6P [2]: < 1e-05 s⁻¹

AUAAAAGCGCUAGAACUACAGAAAUGUAGUUCACGGGGAGGAGGUUUAUCGAAUUUUCGGCAGAUGCCUCGAAA [C11U G32C A36G G62A C71G]
self-cleavage kobs at 40 uM GlcN6P [1]: < 1e-05 s⁻¹
self-cleavage kobs at 640 uM GlcN6P [3]: < 1e-05 s⁻¹

AUAAAAGCGCUAGAACUACAGAAAUGUAGUUGACGAUGAGGAUGUUUAUCGAAUUUUCGGCGUAUGCCUCCAAA [C11U G37U G43U G63U]
self-cleavage kobs at 40 uM GlcN6P [1]: < 1e-05 s⁻¹
self-cleavage kobs at 2500 uM GlcN6P [4]: < 1e-05 s⁻¹
self-cleavage kobs at 10000 uM GlcN6P [2]: < 1e-05 s⁻¹

AUAAAAGCGCCCGAACUACAGAAAUGUAGUUGACGAGGAGGAGGUUUAUCGAAUUUUCGGCGGUUGCGUCCAAA [A12C A64U C68G]
self-cleavage kobs at 40 uM GlcN6P [1]: < 1e-05 s⁻¹

AUAAAAGCGCCCGAACUACAGAAAUGUAGUUAACGAGGAGGAGCUUUAUCGAAUUUUCGGCGGAUGCCUCCAAA [A12C G32A G44C]
self-cleavage kobs at 40 uM GlcN6P [1]: < 1e-05 s⁻¹
self-cleavage kobs at 2500 uM GlcN6P [4]: < 1e-05 s⁻¹

AUAAAAGCGCCCGAACUACAGAAAUGUAGUAGAUGCGGAGGAGGUUUAUCGGAUUUUAGGCGUAUGCCUCCAAA [A12C U31A C34U A36C A52G C58A G63U]
self-cleavage kobs at 40 uM GlcN6P [1]: < 1e-05 s⁻¹
self-cleavage kobs at 10000 uM GlcN6P [2]: < 1e-05 s⁻¹

AUAAAAGCGCCCGAACUACAGAAAUGUAGUUGACUAGGAGGAGGUUCUUCGAAUUUUCGGCGGAUGCCUCCAAA [A12C G35U U47C A48U]
self-cleavage kobs at 40 uM GlcN6P [1]: < 1e-05 s⁻¹
self-cleavage kobs at 640 uM GlcN6P [3]: < 1e-05 s⁻¹
self-cleavage kobs at 10000 uM GlcN6P [2]: < 1e-05 s⁻¹

AUAAAAGCGCCCGAAGUACAGAAAUGUAGUUGACGUGGAGGAGGUUUAUCGAAUUUUCGGCGGAUGCCUCCAAA [A12C C16G A36U]
self-cleavage kobs at 40 uM GlcN6P [1]: < 1e-05 s⁻¹
self-cleavage kobs at 10000 uM GlcN6P [2]: < 1e-05 s⁻¹

AUAAAAGCGCUAGAACUACAGAAAUGUAGUUUACGAGGAGGAGGUUUAACGAAUUUUCGGCGGAUGCCUCAAAA [C11U G32U U49A C71A]
self-cleavage kobs at 40 uM GlcN6P [1]: < 1e-05 s⁻¹

AUAAAAGCGCUAGAACUACAGAAAUGUAGCUGACGAGGAGGAGGUUUAUCGCAUUUUCGGCGGAUGCCUCCAAA [C11U U30C A52C]
self-cleavage kobs at 40 uM GlcN6P [1]: < 1e-05 s⁻¹

AUAAAAGCGCCCGAACUACAGAAAUGUAGUACAAGAGGAGGAGGUUAAUCGAAUUUUCGGCGGAUGCCUCUAAA [A12C U31A G32C C34A U47A C71U]
self-cleavage kobs at 40 uM GlcN6P [1]: < 1e-05 s⁻¹
self-cleavage kobs at 10000 uM GlcN6P [2]: < 1e-05 s⁻¹

AUAAAAGCGCCCGAACUACAGAAAUGUAGUUGACGAGGAGGAGGUUUAUUGAAGUUUCGGCGGAUGCCUCCAAA [A12C C50U U54G]
self-cleavage kobs at 40 uM GlcN6P [1]: < 1e-05 s⁻¹

AUAAAAGCGCUAGAACUACAGAAAUGUAGUUGACGAGGAGGACGUUUAUCGAAUUUUCGGCGGAUGCCUCCAAA [C11U G43C]
self-cleavage kobs at 40 uM GlcN6P [1]: < 1e-05 s⁻¹
self-cleavage kobs at 160 uM GlcN6P [5]: < 1e-05 s⁻¹
self-cleavage kobs at 640 uM GlcN6P [3]: < 1e-05 s⁻¹
self-cleavage kobs at 2500 uM GlcN6P [4]: < 1e-05 s⁻¹

AUAAAAGCGCCCGAACUACAGAAAUGUAGUUGCCGAGGCGGAGGUUUAUCGAAUUUUCGGCGGAUGCCUCCAAA [A12C A33C A39C]
self-cleavage kobs at 40 uM GlcN6P [1]: < 1e-05 s⁻¹

AUAAAAGCGCCCGAACUACAGAAAUGUAGUUGGCGAGGAGGAGGUUUAUCGAAUUUUCGGCGGACGCCUCCAAA [A12C A33G U65C]
self-cleavage kobs at 40 uM GlcN6P [1]: < 1e-05 s⁻¹

AUAAAAGCGCUAGAACUACAGAAAUGUAGUUGACGAGGAGGAGGGUUAUAGAAUUUUCGGCGGAUGCCUCCAAA [C11U U45G C50A]
self-cleavage kobs at 40 uM GlcN6P [1]: < 1e-05 s⁻¹

AUAAAAGCGCUAAAACUACAGAAAUGUAGUUGCCGAGGAGGAGGUUUAUCGAUUUUUCGGCGGAUGCCUCCAAA [C11U G13A A33C A53U]
self-cleavage kobs at 40 uM GlcN6P [1]: < 1e-05 s⁻¹

AUAAAAGCGCCCGAACUACAGAAAUGUAGUUGACGAGGAGUAGGUUUAUCGAAUUUUCGGCGGAUGCCUCCAAA [A12C G41U]
self-cleavage kobs at 40 uM GlcN6P [1]: 5.28e-05 ± 7e-06 s⁻¹
self-cleavage kobs at 160 uM GlcN6P [5]: 7.73e-05 ± 8.9e-06 s⁻¹
self-cleavage kobs at 640 uM GlcN6P [3]: 0.00028 ± 6.1e-05 s⁻¹
self-cleavage kobs at 2500 uM GlcN6P [4]: 0.00034 ± 6.3e-05 s⁻¹
self-cleavage kobs at 10000 uM GlcN6P [2]: 0.00129 ± 0.00013 s⁻¹

AUAAAAGCGCUAGAACUACAGAAAUGUAGUUGACGAGGAGGAGGUUUACCUAAUUUUCGGCGGAUGCCUCCAAA [C11U U49C G51U]
self-cleavage kobs at 40 uM GlcN6P [1]: < 1e-05 s⁻¹

AUAAAAGCGCUAGAACUACAGAAAUGUAGUUGACGAGGAGGAGGUUUAUCGAAUUUUGGGCGGAUGCUUCCAAA [C11U C58G C68U]
self-cleavage kobs at 40 uM GlcN6P [1]: 7.67e-05 ± 2.5e-05 s⁻¹
self-cleavage kobs at 160 uM GlcN6P [5]: 0.000349 ± 9.1e-05 s⁻¹
self-cleavage kobs at 640 uM GlcN6P [3]: 0.000262 ± 7e-05 s⁻¹
self-cleavage kobs at 10000 uM GlcN6P [2]: 5.66e-05 ± 1.6e-05 s⁻¹

AUAAAAGCGCCCGAACUACAGAAAUGUAGUUGACGAGGAGGAGGUUUAUCUAAUUUUCGGCGGAUGCCUCCAAA [A12C G51U]
self-cleavage kobs at 40 uM GlcN6P [1]: < 1e-05 s⁻¹
self-cleavage kobs at 640 uM GlcN6P [3]: < 1e-05 s⁻¹
